Here are results for 5 molecules from paper doi:10.1101/2024.03.27.586992, “Molecular basis for condensin enrichment at pericentromeres” (bioRxiv, 2024).

Common to all, as to conditions: both partners purified
The target of test [1] is T1, Ycg1(6-932, Δ499-555)-Brn1(384-529) (S. cerevisiae, UniProt Q06680 6-932; P38170 384-529, Δ499-555).
T1 construct: Brn1, S. cerevisiae, residues 384-529; also called Ycg1-Brn1; Ycg1-short Brn1
T1 sequence (looked up) 1: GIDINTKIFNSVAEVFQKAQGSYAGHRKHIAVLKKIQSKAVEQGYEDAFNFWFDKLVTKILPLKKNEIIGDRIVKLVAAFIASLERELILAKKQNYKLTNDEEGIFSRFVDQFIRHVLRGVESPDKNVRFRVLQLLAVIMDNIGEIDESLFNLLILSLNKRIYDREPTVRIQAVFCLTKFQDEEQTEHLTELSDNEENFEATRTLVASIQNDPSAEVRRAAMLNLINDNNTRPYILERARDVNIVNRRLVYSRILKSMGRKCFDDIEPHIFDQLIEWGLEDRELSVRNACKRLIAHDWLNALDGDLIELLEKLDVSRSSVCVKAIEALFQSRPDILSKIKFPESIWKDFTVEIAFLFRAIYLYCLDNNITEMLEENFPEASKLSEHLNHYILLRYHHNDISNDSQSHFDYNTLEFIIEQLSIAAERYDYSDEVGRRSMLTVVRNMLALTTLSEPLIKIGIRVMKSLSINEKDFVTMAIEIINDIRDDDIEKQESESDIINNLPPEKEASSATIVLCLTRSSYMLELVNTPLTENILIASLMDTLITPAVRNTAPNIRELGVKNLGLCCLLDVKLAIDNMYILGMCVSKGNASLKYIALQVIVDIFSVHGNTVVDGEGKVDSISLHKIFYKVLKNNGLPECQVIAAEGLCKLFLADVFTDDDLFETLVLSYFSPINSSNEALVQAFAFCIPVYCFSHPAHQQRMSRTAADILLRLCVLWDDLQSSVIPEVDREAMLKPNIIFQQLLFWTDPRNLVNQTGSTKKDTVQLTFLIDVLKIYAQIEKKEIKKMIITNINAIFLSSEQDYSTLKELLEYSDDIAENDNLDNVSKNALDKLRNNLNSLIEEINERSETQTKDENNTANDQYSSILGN
T1 sequence (looked up) 2: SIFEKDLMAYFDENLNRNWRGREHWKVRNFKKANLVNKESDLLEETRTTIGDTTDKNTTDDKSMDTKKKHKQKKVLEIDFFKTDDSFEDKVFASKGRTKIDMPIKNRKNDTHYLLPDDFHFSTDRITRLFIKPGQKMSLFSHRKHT
Nature of the test: co-IP; two purified recombinant proteins incubated 2.5 hours with anti-GFP-coupled dynabeads (GFP-Sgo1 variant held); 25 mM HEPES pH 7.5, 500 mM NaCl, 10 % glycerol, 1 mM DTT, 0.1 % NP-40; silver stain.

The target of the next test is T2, Ycg1(6-932, Δ499-555) (S. cerevisiae, UniProt Q06680 6-932, Δ499-555).
T2 construct: Stood in the assay as a chain of m6; made a molecule for the cross-links
T2 sequence (looked up): T1 sequence (looked up) 1
Nature of the test: cross-linking; BS3 cross-linking mass spectrometry; Sgo1: Ycg1-Brn1 molar ratio 1.5:1; 25 mM HEPES pH7.5, 500 mM NaCl, 10% glycerol; 2 hours on ice; crosslinks with score>10.5.

In test [2] the target is T3, Ycg1 (subunit within the purified pentameric condensin holocomplex) (S. cerevisiae, UniProt Q06680 1-1035).
T3 construct: Ycg1, HAWK subunit of S. cerevisiae condensin; Stood in the assay as a subunit of m2; made a molecule for the cross-links to Sgo1; source: purified from yeast as part of the pentameric condensin complex
T3 sequence (looked up): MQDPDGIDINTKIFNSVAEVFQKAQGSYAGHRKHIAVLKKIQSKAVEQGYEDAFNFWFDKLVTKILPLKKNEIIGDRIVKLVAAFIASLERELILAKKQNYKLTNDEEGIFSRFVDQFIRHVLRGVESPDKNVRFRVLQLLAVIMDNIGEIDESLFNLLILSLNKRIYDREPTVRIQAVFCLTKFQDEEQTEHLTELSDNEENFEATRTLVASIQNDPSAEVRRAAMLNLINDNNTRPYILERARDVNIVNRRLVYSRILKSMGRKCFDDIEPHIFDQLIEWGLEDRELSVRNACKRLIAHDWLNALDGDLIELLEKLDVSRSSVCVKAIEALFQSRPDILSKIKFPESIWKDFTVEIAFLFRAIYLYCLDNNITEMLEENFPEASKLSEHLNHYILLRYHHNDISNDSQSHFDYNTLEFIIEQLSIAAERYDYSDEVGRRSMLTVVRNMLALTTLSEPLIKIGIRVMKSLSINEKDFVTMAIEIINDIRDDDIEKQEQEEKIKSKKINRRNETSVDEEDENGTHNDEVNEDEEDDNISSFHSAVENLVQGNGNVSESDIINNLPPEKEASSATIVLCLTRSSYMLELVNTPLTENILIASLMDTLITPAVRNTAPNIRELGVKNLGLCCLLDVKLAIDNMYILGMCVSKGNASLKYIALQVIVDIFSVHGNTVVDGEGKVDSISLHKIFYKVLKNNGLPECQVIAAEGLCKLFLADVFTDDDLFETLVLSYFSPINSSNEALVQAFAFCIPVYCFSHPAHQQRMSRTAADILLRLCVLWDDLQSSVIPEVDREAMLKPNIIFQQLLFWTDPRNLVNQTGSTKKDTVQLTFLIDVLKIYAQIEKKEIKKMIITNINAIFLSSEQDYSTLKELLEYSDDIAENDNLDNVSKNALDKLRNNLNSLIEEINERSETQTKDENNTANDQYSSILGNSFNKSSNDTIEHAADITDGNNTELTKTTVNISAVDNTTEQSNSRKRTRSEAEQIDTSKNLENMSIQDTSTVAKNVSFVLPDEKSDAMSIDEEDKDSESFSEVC
Nature of the test: cross-linking; BS3 cross-linking mass spectrometry of full length Sgo1 with condensin holo-complex, 1:1 (w:w); 25 mM HEPES pH7.5, 150 mM NaCl, 5% glycerol, 1mM DTT; 2 hours on ice; crosslinks with score>10.5.

Test [3] deals with T1, Ycg1(6-932, Δ499-555)-Brn1(384-529). Nature of the test: co-IP; two purified recombinant proteins incubated 2.5 hours with anti-V5-coupled dynabeads (V5-Sgo1 held); 25 mM HEPES pH 7.5, 500 mM NaCl, 10 % glycerol, 1 mM DTT, 0.1 % NP-40; silver stain or immunoblot. In general terms: Immunoblotting shows a protein as a band on a membrane.

B1: GFP-Sgo1 (472-530) (domain or fragment, S. cerevisiae, UniProt Q08490 472-530, looked up)
chain: KNEKKLTSNNSPKKSSPLLDITNKSENKKKSTRTKKLFKNAIVNNLSDENSTTRPSKSS
notes: Sgo1, S. cerevisiae, residues 472-530 (holds CR1); also called wild type; source: E. coli BL21(DE3), purified (Ni-NTA resin, dialysis)
For the molecule B1, the binding result in test [1] is listed as “binds”.

B2: Brn1(384-529) (domain or fragment, S. cerevisiae, UniProt P38170 384-529, looked up)
chain: T1 sequence (looked up) 2
notes: Brn1, S. cerevisiae, residues 384-529; Stood in the assay as a chain of m6; made a molecule for the cross-links; also called short Brn1
For the molecule B2, the binding result with Ycg1(6-932, Δ499-555) is listed as “binds”.

B3: V5-Sgo1 (FL) (natural protein, S. cerevisiae, UniProt Q08490 1-590, looked up)
chain: MPKRKIAPNKESSRRTVSHDDLTPQIQEFQNLMDLESQKVENIRQSYSRQNSLLAKDNSILKIKVNSLEKKISQLVQENVTLRSKTSISEAIYRERLSNQLQVIENGIIQRFDEIFYMFENVRKNENLPSSSLRTMLKRTSSRSRSCSLSSPTYSKSYTRLSNHENNLSHESSFNKDDGPDLEPKAKKRKSSRRQSMFVSTSLEPEDETGENEPMMENSSVEVPAESHESAQVEETIDALNPEEENSDSVSNFTNSIIEYSIPEENPTEPEHSSSKLEIFNDSTNMLSTVPSNPLPLPLPGPSATLPTTTSDASTVYPSSSSSTNSHPKTKIKHSMKPPRIELKKKVIDEVMPVSNMSSNSEISFTRTRRTRGKAVDYTLPSLRAKMRRPSEKLVDATTVIDIHDLQVSKRNRETSHKRKSLSQDSIPDEPQLREVVVSKDYGTPKGKKTEDEIHEDTAHLMTTSNNNSNNKNEKKLTSNNSPKKSSPLLDITNKSENKKKSTRTKKLFKNAIVNNLSDENSTTRPSKSSKGTSNNNNNYNNFDNNNSNINNVNNKSVSFRLNEDDLAVFDLFGNGKAVKHQPKTYRTKK
notes: Sgo1 (shugoshin), S. cerevisiae, full length; Written V5-Sgo1; also called full length Sgo1; shugoshin; source: protease-deficient yeast strain (AM8184), purified (Ni2+ HiTrap IMAC, Superose 6 gel filtration)
Take B3: in test [2], the binding result is given as “binds”.

B4: V5-Sgo1 (350-590) (domain or fragment, S. cerevisiae, UniProt Q08490 350-590, looked up)
chain: EVMPVSNMSSNSEISFTRTRRTRGKAVDYTLPSLRAKMRRPSEKLVDATTVIDIHDLQVSKRNRETSHKRKSLSQDSIPDEPQLREVVVSKDYGTPKGKKTEDEIHEDTAHLMTTSNNNSNNKNEKKLTSNNSPKKSSPLLDITNKSENKKKSTRTKKLFKNAIVNNLSDENSTTRPSKSSKGTSNNNNNYNNFDNNNSNINNVNNKSVSFRLNEDDLAVFDLFGNGKAVKHQPKTYRTKK
notes: Sgo1, S. cerevisiae, residues 350-590 (C-terminal region); also called C-terminus of Sgo1 (350-590); C-Sgo1; source: protease-deficient yeast strain (AM8184), galactose induced, purified as V5-Sgo1 (FL) (Ni2+ IMAC, gel filtration)
B4: the binding result is listed as “binds” in test [3] and “binds” with Ycg1(6-932, Δ499-555).

B5: GFP-Sgo1(350-590) (domain or fragment, S. cerevisiae, UniProt Q08490 350-590, looked up)
chain: B4 chain
notes: Sgo1, S. cerevisiae, residues 350-590; codon optimized gene; Written GFP-Sgo1; also called GFP-tagged C-Sgo1; wild type
With B5, in test [1], the binding result is “binds”.
